The chains are these.
T1: EsCas13d, nuclease-dead (Eubacterium siraeum, UniProt B0MS50, R295A;H300A;R849A;H854A)
T1 sequence: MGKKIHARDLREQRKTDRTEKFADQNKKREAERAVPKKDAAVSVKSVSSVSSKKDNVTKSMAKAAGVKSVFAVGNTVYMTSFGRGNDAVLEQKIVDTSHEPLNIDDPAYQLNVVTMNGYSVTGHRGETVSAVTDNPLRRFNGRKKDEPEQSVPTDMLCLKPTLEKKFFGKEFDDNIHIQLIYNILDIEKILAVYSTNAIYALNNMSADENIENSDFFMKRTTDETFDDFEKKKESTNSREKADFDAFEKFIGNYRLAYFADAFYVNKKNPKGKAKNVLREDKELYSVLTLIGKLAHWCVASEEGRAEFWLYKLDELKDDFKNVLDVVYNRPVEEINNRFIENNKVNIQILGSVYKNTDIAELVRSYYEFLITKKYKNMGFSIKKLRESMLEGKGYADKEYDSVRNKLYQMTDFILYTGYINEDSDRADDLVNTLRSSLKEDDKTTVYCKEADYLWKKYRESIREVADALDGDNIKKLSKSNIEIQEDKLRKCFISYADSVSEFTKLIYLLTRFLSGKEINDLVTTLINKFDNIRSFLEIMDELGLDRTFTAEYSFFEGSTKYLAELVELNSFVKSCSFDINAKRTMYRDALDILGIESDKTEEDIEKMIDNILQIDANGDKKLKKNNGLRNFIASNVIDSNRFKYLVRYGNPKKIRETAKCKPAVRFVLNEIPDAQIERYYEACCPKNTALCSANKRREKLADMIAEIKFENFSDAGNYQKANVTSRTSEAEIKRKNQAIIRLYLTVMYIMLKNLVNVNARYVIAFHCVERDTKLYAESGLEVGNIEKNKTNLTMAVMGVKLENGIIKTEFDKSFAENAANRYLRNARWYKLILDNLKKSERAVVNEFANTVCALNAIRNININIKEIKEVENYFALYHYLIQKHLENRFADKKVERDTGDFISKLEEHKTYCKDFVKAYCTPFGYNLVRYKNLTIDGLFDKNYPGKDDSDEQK

B1: target 1 A16C,C21A (mixed)
RNA 1: CACCCGUGCAAAAAUGCAGGGGUCUAAAACUGAGCGGAUAACCUCUCUAUGG
RNA 2: GGGAAUGGAUCCACAUCUACGAAUUCGUACAAUAGCGAGGUUAUCCGCUCACCGAGAUCGGAAGAGCACACGU
B2: target 1 C6U,A16U (mixed)
RNA 1: CACCCGUGCAAAAAUGCAGGGGUCUAAAACUGAGCGGAUAACCUCUCUAUGG
RNA 2: GGGAAUGGAUCCACAUCUACGAAUUCGUACCAUAGUGAGGUUAUCUGCUCACCGAGAUCGGAAGAGCACACGU
B3: target 1 del7,del16 (mixed)
RNA 1: CACCCGUGCAAAAAUGCAGGGGUCUAAAACUGAGCGGAUAACCUCUCUAUGG
RNA 2: GGGAAUGGAUCCACAUCUACGAAUUCGUACCAUAGGAGGUUAUCGCUCACCGAGAUCGGAAGAGCACACGU
B4: target 2 MT 5'PFS GGU 3'PFS AUA (mixed)
RNA 1: CACCCGUGCAAAAUUGCAGGGGUCUAAAACCUUCUCCAAAUUGUUUCAUCCU
RNA 2: GGGAAUGGAUCCACAUCUACGAAUUCGGUAGGAUGAAACAAUUUGGAGAAGAUAAGAUCGGAAGAGCACACGU
B5: target 2 MT 5'PFS UAC 3'PFS CCG (mixed)
RNA 1: CACCCGUGCAAAAUUGCAGGGGUCUAAAACCUUCUCCAAAUUGUUUCAUCCU
RNA 2: GGGAAUGGAUCCACAUCUACGAAUUCUACAGGAUGAAACAAUUUGGAGAAGCCGAGAUCGGAAGAGCACACGU
B6: target 2 MT 5'PFS UAC 3'PFS AAA (mixed)
RNA 1: CACCCGUGCAAAAUUGCAGGGGUCUAAAACCUUCUCCAAAUUGUUUCAUCCU
RNA 2: GGGAAUGGAUCCACAUCUACGAAUUCUACAGGAUGAAACAAUUUGGAGAAGAAAAGAUCGGAAGAGCACACGU
B7: target 2 MT 5'PFS GAU 3'PFS ACA (mixed)
RNA 1: CACCCGUGCAAAAUUGCAGGGGUCUAAAACCUUCUCCAAAUUGUUUCAUCCU
RNA 2: GGGAAUGGAUCCACAUCUACGAAUUCGAUAGGAUGAAACAAUUUGGAGAAGACAAGAUCGGAAGAGCACACGU
B8: target 2 MT 5'PFS GGU 3'PFS AUU (mixed)
RNA 1: CACCCGUGCAAAAUUGCAGGGGUCUAAAACCUUCUCCAAAUUGUUUCAUCCU
RNA 2: GGGAAUGGAUCCACAUCUACGAAUUCGGUAGGAUGAAACAAUUUGGAGAAGAUUAGAUCGGAAGAGCACACGU
B9: target 2 MT 5'PFS UAC 3'PFS AAU (mixed)
RNA 1: CACCCGUGCAAAAUUGCAGGGGUCUAAAACCUUCUCCAAAUUGUUUCAUCCU
RNA 2: GGGAAUGGAUCCACAUCUACGAAUUCUACAGGAUGAAACAAUUUGGAGAAGAAUAGAUCGGAAGAGCACACGU
B10: target 2 MT 5'PFS GAU 3'PFS ACU (mixed)
RNA 1: CACCCGUGCAAAAUUGCAGGGGUCUAAAACCUUCUCCAAAUUGUUUCAUCCU
RNA 2: GGGAAUGGAUCCACAUCUACGAAUUCGAUAGGAUGAAACAAUUUGGAGAAGACUAGAUCGGAAGAGCACACGU
B11: target 2 MT 5'PFS CUA 3'PFS CCU (mixed)
RNA 1: CACCCGUGCAAAAUUGCAGGGGUCUAAAACCUUCUCCAAAUUGUUUCAUCCU
RNA 2: GGGAAUGGAUCCACAUCUACGAAUUCCUAAGGAUGAAACAAUUUGGAGAAGCCUAGAUCGGAAGAGCACACGU
B12: target 2 MT 5'PFS GAU 3'PFS ACC (mixed)
RNA 1: CACCCGUGCAAAAUUGCAGGGGUCUAAAACCUUCUCCAAAUUGUUUCAUCCU
RNA 2: GGGAAUGGAUCCACAUCUACGAAUUCGAUAGGAUGAAACAAUUUGGAGAAGACCAGAUCGGAAGAGCACACGU
B13: target 2 MT 5'PFS UAC 3'PFS CCC (mixed)
RNA 1: CACCCGUGCAAAAUUGCAGGGGUCUAAAACCUUCUCCAAAUUGUUUCAUCCU
RNA 2: GGGAAUGGAUCCACAUCUACGAAUUCUACAGGAUGAAACAAUUUGGAGAAGCCCAGAUCGGAAGAGCACACGU
B14: target 2 MT 5'PFS UAC 3'PFS AAC (mixed)
RNA 1: CACCCGUGCAAAAUUGCAGGGGUCUAAAACCUUCUCCAAAUUGUUUCAUCCU
RNA 2: GGGAAUGGAUCCACAUCUACGAAUUCUACAGGAUGAAACAAUUUGGAGAAGAACAGAUCGGAAGAGCACACGU
B15: target 2 MT 5'PFS CCU 3'PFS UCC (mixed)
RNA 1: CACCCGUGCAAAAUUGCAGGGGUCUAAAACCUUCUCCAAAUUGUUUCAUCCU
RNA 2: GGGAAUGGAUCCACAUCUACGAAUUCCCUAGGAUGAAACAAUUUGGAGAAGUCCAGAUCGGAAGAGCACACGU
B16: target 2 MT 5'PFS UAC 3'PFS AAG (mixed)
RNA 1: CACCCGUGCAAAAUUGCAGGGGUCUAAAACCUUCUCCAAAUUGUUUCAUCCU
RNA 2: GGGAAUGGAUCCACAUCUACGAAUUCUACAGGAUGAAACAAUUUGGAGAAGAAGAGAUCGGAAGAGCACACGU
B17: target 2 MT 5'PFS CUA 3'PFS CCA (mixed)
RNA 1: CACCCGUGCAAAAUUGCAGGGGUCUAAAACCUUCUCCAAAUUGUUUCAUCCU
RNA 2: GGGAAUGGAUCCACAUCUACGAAUUCCUAAGGAUGAAACAAUUUGGAGAAGCCAAGAUCGGAAGAGCACACGU
B18: target 2 MT 5'PFS GUG 3'PFS UCU (mixed)
RNA 1: CACCCGUGCAAAAUUGCAGGGGUCUAAAACCUUCUCCAAAUUGUUUCAUCCU
RNA 2: GGGAAUGGAUCCACAUCUACGAAUUCGUGAGGAUGAAACAAUUUGGAGAAGUCUAGAUCGGAAGAGCACACGU
B19: target 2 MT 5'PFS CAU 3'PFS CUG (mixed)
RNA 1: CACCCGUGCAAAAUUGCAGGGGUCUAAAACCUUCUCCAAAUUGUUUCAUCCU
RNA 2: GGGAAUGGAUCCACAUCUACGAAUUCCAUAGGAUGAAACAAUUUGGAGAAGCUGAGAUCGGAAGAGCACACGU
B20: target 2 MT 5'PFS GUU 3'PFS UUC (mixed)
RNA 1: CACCCGUGCAAAAUUGCAGGGGUCUAAAACCUUCUCCAAAUUGUUUCAUCCU
RNA 2: GGGAAUGGAUCCACAUCUACGAAUUCGUUAGGAUGAAACAAUUUGGAGAAGUUCAGAUCGGAAGAGCACACGU
B21: target 2 MT 5'PFS CCU 3'PFS UCU (mixed)
RNA 1: CACCCGUGCAAAAUUGCAGGGGUCUAAAACCUUCUCCAAAUUGUUUCAUCCU
RNA 2: GGGAAUGGAUCCACAUCUACGAAUUCCCUAGGAUGAAACAAUUUGGAGAAGUCUAGAUCGGAAGAGCACACGU
B22: target 2 MT 5'PFS GUU 3'PFS UUU (mixed)
RNA 1: CACCCGUGCAAAAUUGCAGGGGUCUAAAACCUUCUCCAAAUUGUUUCAUCCU
RNA 2: GGGAAUGGAUCCACAUCUACGAAUUCGUUAGGAUGAAACAAUUUGGAGAAGUUUAGAUCGGAAGAGCACACGU
B23: target 2 MT 5'PFS GGU 3'PFS AUG (mixed)
RNA 1: CACCCGUGCAAAAUUGCAGGGGUCUAAAACCUUCUCCAAAUUGUUUCAUCCU
RNA 2: GGGAAUGGAUCCACAUCUACGAAUUCGGUAGGAUGAAACAAUUUGGAGAAGAUGAGAUCGGAAGAGCACACGU
B24: target 2 MT 5'PFS GAU 3'PFS ACG (mixed)
RNA 1: CACCCGUGCAAAAUUGCAGGGGUCUAAAACCUUCUCCAAAUUGUUUCAUCCU
RNA 2: GGGAAUGGAUCCACAUCUACGAAUUCGAUAGGAUGAAACAAUUUGGAGAAGACGAGAUCGGAAGAGCACACGU
B25: target 2 MT 5'PFS UAC 3'PFS CCA (mixed)
RNA 1: CACCCGUGCAAAAUUGCAGGGGUCUAAAACCUUCUCCAAAUUGUUUCAUCCU
RNA 2: GGGAAUGGAUCCACAUCUACGAAUUCUACAGGAUGAAACAAUUUGGAGAAGCCAAGAUCGGAAGAGCACACGU
B26: target 2 MT 5'PFS CAU 3'PFS CUC (mixed)
RNA 1: CACCCGUGCAAAAUUGCAGGGGUCUAAAACCUUCUCCAAAUUGUUUCAUCCU
RNA 2: GGGAAUGGAUCCACAUCUACGAAUUCCAUAGGAUGAAACAAUUUGGAGAAGCUCAGAUCGGAAGAGCACACGU
B27: target 2 MT 5'PFS AUU 3'PFS UCU (mixed)
RNA 1: CACCCGUGCAAAAUUGCAGGGGUCUAAAACCUUCUCCAAAUUGUUUCAUCCU
RNA 2: GGGAAUGGAUCCACAUCUACGAAUUCAUUAGGAUGAAACAAUUUGGAGAAGUCUAGAUCGGAAGAGCACACGU

This passage reports Kd results from publication PMC10786891, “Massively parallel profiling of RNA-targeting CRISPR-Cas13d”.

The series has as its target T1, EsCas13d, nuclease-dead. Nature of the series: crRNA (strand 1, pre-loaded); Mg2+; 40 mM Tris-HCl pH 7.5, 150 mM NaCl, 6 mM MgCl2, 1 mM DTT, 0.1% Tween-20, 0.2 mg/ml BSA; 25 C; 10 min per concentration, then washed. Particulars: tags: His6-TwinStrep-SUMO cleaved; N-terminal SNAP kept (SNAP-Surface 488); label: 3' end held by stalled T7 RNA polymerase.
By Kd is commonly meant the constant that tells how readily two partners part at equilibrium. Read a high Kd as lower affinity. B1 came in with a Kd of 66 ± 11 nM.
B2 returned a Kd of 37.1 ± 2.6 nM.
In turn, B3 registered a Kd of 45 ± 6 nM.
As for B4, the Kd stood at 14.8 ± 2.7 nM.
Turning to B5, the equilibrium dissociation constant (Kd) stood at 6.1 ± 1.4 nM.
Consider B6, for which the affinity, expressed as Kd, was 6 ± 1.4 nM.
Take B7: the Kd was determined as 10.6 ± 1.6 nM.
Consider B8, for which the Kd is 14.8 ± 1.6 nM.
B9: the Kd was 10 ± 4 nM.
As for B10, the Kd was 20.1 ± 3.2 nM.
Turning to B11, the Kd is about 49 nM.
B12 came in with a Kd of 17.7 ± 3.4 nM.
Regarding B13, the Kd was about 19 nM.
B14 displayed a Kd of 11 ± 4 nM.
As to B15, binding was put at a Kd of 1.74 ± 0.18 nM.
The figure for B16 is 5.8 ± 1 nM; for B17 it is 2.9 ± 1 nM; for B18 it is 18.9 ± 1.8 nM.
For the molecule B19, binding was put at a Kd of 5.4 ± 0.8 nM.
The figure for B20 is 31 ± 5 nM; for B21 it is 2.71 ± 0.32 nM; for B22 it is 51 ± 11 nM.
For B23 the value was 16.1 ± 1.6 nM.
B24 returned a Kd of 17.2 ± 2.2 nM.
For B25 the value was 17 ± 4 nM; for B26, 6.8 ± 0.8 nM; for B27, 10.7 ± 0.6 nM.
